According to patent publication US20230340119A1 (ARBELE, published 2023):
Residue numbers refer to the chain shown, from its start. Several values for one entry are separate records, joined by “and”; a condition that tells them apart may be missing. Identical values can stand only once.

T1: Fibroblast activation protein alpha (FAP) on DLD1-FAP cells (UniProt Q12884 1-760, limits assumed)
T1 sequence (looked up): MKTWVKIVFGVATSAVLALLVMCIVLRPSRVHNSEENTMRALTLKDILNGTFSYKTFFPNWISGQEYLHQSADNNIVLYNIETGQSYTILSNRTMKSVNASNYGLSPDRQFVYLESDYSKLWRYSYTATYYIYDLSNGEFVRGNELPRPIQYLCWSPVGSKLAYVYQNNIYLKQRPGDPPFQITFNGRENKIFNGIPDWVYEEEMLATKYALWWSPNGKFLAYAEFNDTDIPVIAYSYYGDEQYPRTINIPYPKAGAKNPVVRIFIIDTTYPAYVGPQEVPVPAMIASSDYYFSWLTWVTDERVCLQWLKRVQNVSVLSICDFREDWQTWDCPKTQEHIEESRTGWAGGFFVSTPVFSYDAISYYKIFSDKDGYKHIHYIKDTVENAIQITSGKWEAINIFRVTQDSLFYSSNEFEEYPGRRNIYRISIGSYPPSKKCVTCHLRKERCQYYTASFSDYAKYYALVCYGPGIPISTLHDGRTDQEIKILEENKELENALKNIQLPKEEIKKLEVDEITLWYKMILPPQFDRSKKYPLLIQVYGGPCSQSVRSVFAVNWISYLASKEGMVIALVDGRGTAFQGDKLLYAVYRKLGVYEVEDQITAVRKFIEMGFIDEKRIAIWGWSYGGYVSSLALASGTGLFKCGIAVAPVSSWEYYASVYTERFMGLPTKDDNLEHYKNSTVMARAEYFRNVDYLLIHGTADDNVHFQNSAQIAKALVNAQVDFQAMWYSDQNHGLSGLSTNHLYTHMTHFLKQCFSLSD

B1: h10Ta-wt (bispecific antibody)
light: DIQMTQSPSSLSASVGDRVTITCRASQDIRNYLNWYQQKPGKAPKLLIYYTSRLESGVPSRFSGSGSGTDYTLTISSLQPEDFATYYCQQGNTLPWTFGQGTKVEIKGAPGGGTHTCPPCPAPELLGGPSVFLFPPKPKDTLMISRTPEVTCVVVDVSQEDPEVQFNWYVDGVEVHNAKTKPREEQFNSTYRVVSVLTVLHQDWLNGKEYKCKVSNKGLPSSIEKTISKAKGQPREPQVYTLPPSREEMTKNQVSLSCAVKGFYPSDIAVEWESNGQPENNYKTTPPVLDSDGSFFLVSKLTVDKSRWQQGNVFSCSVMHEALHNHYTQKSLSLSPGK
heavy: EVQLLESGGGLVQPGGSLRLSCAASGFTFSSYAMSWVRQAPGKGLEWVAVIDSNGGSTYYPDTVKDRFTISRDNSKNTLYLQMNSLRAEDTAVYYCSSYTNLGAYWGQGTLVTVSAGGGGSGGGGSGGGGSDIQMTQSPSSLSASVGDRVTITCRASQDISGYLNWLQQKPGKAIKRLIYTTSTLDSGVPSRFSGSGSGTDFTLTISSLQPEDFATYYCLQYASSPFTFGGGTKVEIKPAGGGGGSEVQLVESGGGLVQPGGSLRLSCAASGYSFTGYTMNWVRQAPGKGLEWVALINPYKGVSTYNQKFKDRFTISVDKSKNTAYLQMNSLRAEDTAVYYCARSGYYGDSDWYFDVWGQGTLVTVSSGAPGGGTHTCPPCPAPELLGGPSVFLFPPKPKDTLMISRTPEVTCVVVDVSQEDPEVQFNWYVDGVEVHNAKTKPREEQFNSTYRVVSVLTVLHQDWLNGKEYKCKVSNKGLPSSIEKTISKAKGQPREPQVYTLPPSREEMTKNQVSLWCLVKGFYPSDIAVEWESNGQPENNYKTTPPVLDSDGSFFLYSKLTVDKSRWQQGNVFSCSVMHEALHNHYTQKSLSLSPGK
notes: also called h10Ta with the parental Fv; h10Ta (wt anti-CD3 Fv)
B2: h10Ta-L4 (bispecific antibody)
light: B1 light with R24Q, R30S
heavy: B1 heavy
notes: also called TriAx-A harboring L4
B3: hB2Ta (bispecific antibody)
light: B1 light with R24Q, R30S
heavy: QVQLVQSGAEVKKPGASVKVSCKASGYSFTDYTMNWVRQAPGQGLEWMGVINPNHGISSYAQKFQGRVTMTRDTSTSTVYMELSSLRSEDTAVYYCVRRKISYDYDEGYAMDYWGQGTLVTVSSGGGGSGGGGSGGGGSDIVMTQSPDSLAVSLGERATINCKSSQNLLNSSNQKNYLAWYQQKPGQPPKLLVFFAATRESGVPDRFSGSGSGTDFTLTISSLQAEDVAVYYCQQHYSTPWTFGGGTKLEIKPAGGGGSEVQLVESGGGLVQPGGSLRLSCAASGYSFTGYTMNWVRQAPGKGLEWVALINPYKGVSTYNQKFKDRFTISVDKSKNTAYLQMNSLRAEDTAVYYCARSGYYGDSDWYFDVWGQGTLVTVSSGAPGGGTHTCPPCPAPELLGGPSVFLFPPKPKDTLMISRTPEVTCVVVDVSQEDPEVQFNWYVDGVEVHNAKTKPREEQFNSTYRVVSVLTVLHQDWLNGKEYKCKVSNKGLPSSIEKTISKAKGQPREPQVYTLPPSREEMTKNQVSLWCLVKGFYPSDIAVEWESNGQPENNYKTTPPVLDSDGSFFLYSKLTVDKSRWQQGNVFSCSVMHEALHNHYTQKSLSLSPGK

Tests used:
CD3 on T cells [1] = molecular target: T2, CD3 on T cells (UniProt P07766 23-207); test: cell-based or functional assay
CD3 on T cells [2] = molecular target: T2, CD3 on T cells; test: flow cytofluorimetry on peripheral blood T cells, fit of Median FI against concentration; one of three independent determinations
Method: (§1) The antibody binding to peripheral blood T cells was determined for T cell affinity over a range of concentration as shown in FIG. 8A. MFI were plotted and affinity (EC50) was determined using GraphPad PRISM. Three independent affinity determinations and their averages were indicated. […] Both h10Ta antibodies engaged CDH17 (on DLD1) and CD3. The signaling was determined according to manufacturer's protocol, at 24 hours using an antibody concentration range as indicated and Jurkat reporter cells at 100×10³ and DLD1 cells at 30×10³ per microtiter well (96-well plate). Luciferase expression/activity was measured using a multimode plate reader. […] Controls included no antibody or a CD3, CD28, CD2 agonist (Immunocult; StemCell) to induce maximal stimulation.

CD3 on T cells [3] = molecular target: T2, CD3 on T cells; test: cell-based or functional assay; remark: listed apart in the source
CD3 on T cells [4] = molecular target: T2, CD3 on T cells; test: flow cytofluorimetry on peripheral blood T cells, EC50 from MFI, average of three determinations; h10Ta-wt, parental Fv Vk CDR1
Method: as §1

CD3 on T cells [5] = molecular target: T2, CD3 on T cells; test: flow cytofluorimetry on peripheral blood T cells, EC50 from MFI, average of three determinations; h10Ta-L4, modified CDRL1
Method: as §1

CD3 on T cells [6] = molecular target: T2, CD3 on T cells; test: flow cytofluorimetry on peripheral blood T cells
Method: as §1

[7] = molecular target: T1, Fibroblast activation protein alpha …; test: cell-based or functional assay

T2 sequence (P07766 23-207): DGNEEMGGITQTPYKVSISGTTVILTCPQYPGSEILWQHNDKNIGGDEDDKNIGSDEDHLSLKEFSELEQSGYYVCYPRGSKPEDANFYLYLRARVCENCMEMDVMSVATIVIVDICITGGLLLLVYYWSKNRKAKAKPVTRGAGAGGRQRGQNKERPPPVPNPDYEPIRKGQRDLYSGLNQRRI

Binder	EC50 (read off the curve), NFAT-luciferase induction in Jurkat reporter cells with DLD1 cells (CD3 on T cells [1])	Kd (CD3 on T cells [2])	EC50 for AGS killing in the presence of T cells, 24 hours, E:T 4 (CD3 on T cells [3])	EC50 for killing DLD1 in the presence of T cells, 24 hours, E:T 4 (CD3 on T cells [3])	EC50 (CD3 on T cells [4])	EC50 (CD3 on T cells [5])	fold decrease in T cell affinity relative to the parental Fv (h10Ta-wt) (CD3 on T cells [6])	fold decrease in T cell signaling, NFAT luciferase Jurkat reporter cells with DLD1 cells, 24 hours (CD3 on T cells [3])	EC50 of tumor cell cytotoxicity, DLD1-FAP cells with T cells, 24 hours, E:T 4 [7]
B1	~0.4 nM	50 nM and 54 nM and 75 nM	0.0014 nM	0.0005 nM	60 nM				
B2	~0.8 nM	236 nM and 358 nM and 365 nM	0.002 nM	0.0004 nM		320 nM	5 fold	2 fold	
B3									0.041 nM
